From patent US20130052130A1 come the findings set out here.

Assay [1] deals with TAG-72. Description: competition assay, single aliquots; antigen and competitor not stated.
In assay [2] the target is BSM. Put plainly: competition ELISA, BSM-coated plate; competitor is mCC49 at 0.033 ug/mL. For orientation: ELISA stands for enzyme-linked immunosorbent assay.

In turn, CC49 Fab′-dPEG12-Tris(dPEG24 acid)3 came in with a Relative Affinity Constant (Ka) (relative to Fab′-NEM defined as 1.0) in assay [1] of 1. The substance further came in with an I1/2 fold relative to F(ab′)2 (fold (× the I1/2 of F(ab′)2)) in assay [2] of 40. In assay [1], CC49 Fab′-NEM registered a Relative Affinity Constant (Ka) (relative to Fab′-NEM defined as 1.0) of 1. Further, the I1/2 fold relative to F(ab′)2 (fold (× the I1/2 of F(ab′)2)) in assay [2] was 40.

Substance “CC49 Fab′-dPEG12-Tris(dPEG12-Tris(m-dPEG11)3)3” returned a Relative Affinity Constant (Ka) (relative to Fab′-NEM defined as 1.0) in assay [1] of 0.4. CC49 Fab′-dPEG12-Tris(m-dPEG24)3: the Relative Affinity Constant (Ka) (relative to Fab′-NEM defined as 1.0) in assay [1] was determined as 0.3. For the substance CC49 Fab′-dPEG12-Tris(dPEG12 acid)3, in assay [1], the Relative Affinity Constant (Ka) (relative to Fab′-NEM defined as 1.0) was 0.3.
